Results on one protein are retold here after article PMC3162391 (The Journal of Biological Chemistry, 2011).

This data set concerns the molecule itself. Nature of the data set: FRET or BRET. On the technique in general: In BRET a luciferase serves as donor, and the signal depends on an acceptor being close.

B1: CD5 BRET pair (CD5Luc and CD5GFP) (receptor, human, UniProt P06127 25-495, looked up)
chain: RLSWYDPDFQARLTRSNSKCQGQLEVYLKDGWHMVCSQSWGRSSKQWEDPSQASKVCQRLNCGVPLSLGPFLVTYTPQSSIICYGQLGSFSNCSHSRNDMCHSLGLTCLEPQKTTPPTTRPPPTTTPEPTAPPRLQLVAQSGGQHCAGVVEFYSGSLGGTISYEAQDKTQDLENFLCNNLQCGSFLKHLPETEAGRAQDPGEPREHQPLPIQWKIQNSSCTSLEHCFRKIKPQKSGRVLALLCSGFQPKVQSRLVGGSSICEGTVEVRQGAQWAALCDSSSARSSLRWEEVCREQQCGSVNSYRVLDAGDPTSRGLFCPHQKLSQCHELWERNSYCKKVFVTCQDPNPAGLAAGTVASIILALVLLVVLLVVCGPLAYKKLVKKFRQKKQRQWIGPTGMNQNMSFHRNHTATVRSHAENPTASHVDNEYSQPPRNSHLSAYPALEGALHRSSMQPDNSSDSDYDLHGAQRL
For the protein B1, the “stoichiometry N” value is 2.

In general, stoichiometry N refers to a count of units in the complex or per binding partner.
